Blank lines part the entries; values can stand above or below the molecule they belong to.
What was measured:
[1] = molecular target: T1, bovine LPL (lipoprotein lipase) (bovine, UniProt P11151 29-478); experiment: cell-based or functional assay
T1 sequence (looked up): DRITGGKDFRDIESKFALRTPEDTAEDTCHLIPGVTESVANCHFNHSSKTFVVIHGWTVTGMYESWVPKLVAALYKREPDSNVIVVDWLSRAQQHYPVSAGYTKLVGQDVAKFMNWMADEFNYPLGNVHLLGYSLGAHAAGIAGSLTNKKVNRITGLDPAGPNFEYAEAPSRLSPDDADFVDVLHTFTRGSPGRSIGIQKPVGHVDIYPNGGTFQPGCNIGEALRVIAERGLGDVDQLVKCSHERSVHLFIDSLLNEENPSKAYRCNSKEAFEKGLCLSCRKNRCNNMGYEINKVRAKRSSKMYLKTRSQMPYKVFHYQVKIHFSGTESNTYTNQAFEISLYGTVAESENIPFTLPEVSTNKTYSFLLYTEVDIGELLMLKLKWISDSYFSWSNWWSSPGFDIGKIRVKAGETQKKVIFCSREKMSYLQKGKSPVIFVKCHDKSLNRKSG

[2] = molecular target: T2, C2thirdhelix Stearylpos17
T2 chain: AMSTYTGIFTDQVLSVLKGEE

C2thirdhelix Stearylpos1 = molecular target: T3, C2thirdhelix Stearylpos1
T3 chain: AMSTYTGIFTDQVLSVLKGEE

C2thirdhelix Stearylpos2 = molecular target: T4, C2thirdhelix Stearylpos2
T4 chain: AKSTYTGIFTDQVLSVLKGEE

C2thirdhelix = molecular target: T5, C2thirdhelix
T5 chain: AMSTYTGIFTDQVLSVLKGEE

Delta13-31-PV = molecular target: T6, Delta13-31-PV
T6 chain: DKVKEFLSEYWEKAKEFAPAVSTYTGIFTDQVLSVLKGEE

Delta4 = molecular target: T7, Delta4
T7 chain: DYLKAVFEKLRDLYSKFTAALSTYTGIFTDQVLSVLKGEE

Delta4b T57F = molecular target: T8, Delta4b T57F
T8 chain: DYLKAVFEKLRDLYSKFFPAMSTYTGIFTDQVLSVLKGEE

Delta4b-1 = molecular target: T9, Delta4b-1
T9 chain: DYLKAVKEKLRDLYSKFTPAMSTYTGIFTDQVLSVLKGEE

Delta4b-2 = molecular target: T10, Delta4b-2
T10 chain: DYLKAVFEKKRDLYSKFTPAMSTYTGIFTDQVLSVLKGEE

Delta4b-3 = molecular target: T11, Delta4b-3
T11 chain: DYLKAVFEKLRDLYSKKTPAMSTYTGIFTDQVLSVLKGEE

Delta4b = molecular target: T12, Delta4b
T12 chain: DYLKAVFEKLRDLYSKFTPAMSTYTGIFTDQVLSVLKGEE

Delta4c trunc10 = molecular target: T13, Delta4c trunc10
T13 chain: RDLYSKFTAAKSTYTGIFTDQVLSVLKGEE

Delta4c trunc11 = molecular target: T14, Delta4c trunc11
T14 chain: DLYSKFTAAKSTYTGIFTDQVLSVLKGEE

Delta4c trunc14 = molecular target: T15, Delta4c trunc14
T15 chain: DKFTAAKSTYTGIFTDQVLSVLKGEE

Delta4c trunc3 = molecular target: T16, Delta4c trunc3
T16 chain: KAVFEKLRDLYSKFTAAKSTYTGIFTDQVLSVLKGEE

Delta4c trunc4 = molecular target: T17, Delta4c trunc4
T17 chain: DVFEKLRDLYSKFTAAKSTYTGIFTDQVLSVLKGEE

Delta4c trunc7 = molecular target: T18, Delta4c trunc7
T18 chain: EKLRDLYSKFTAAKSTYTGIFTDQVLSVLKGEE

Delta4c = molecular target: T19, Delta4c
T19 chain: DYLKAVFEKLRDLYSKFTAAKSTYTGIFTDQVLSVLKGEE

Delta5 = molecular target: T20, Delta5
T20 chain: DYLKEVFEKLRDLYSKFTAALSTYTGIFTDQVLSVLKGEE

Delta6 = molecular target: T21, Delta6
T21 chain: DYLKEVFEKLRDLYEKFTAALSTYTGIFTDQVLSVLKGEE

[3] = molecular target: variants of Delta5 with the indicated amino acid substitutions

free fatty acid (NEFA) production, LPL assay with high TG human plasma (1:50) [1]: 1.7 µM
free fatty acid (NEFA) production, LPL assay with human plasma [1]: 0.8 µM
Molecule: recombinant ApoC-III

B1: bovine LPL (lipoprotein lipase) (protein)
chain: DRITGGKDFRDIESKFALRTPEDTAEDTCHLIPGVTESVANCHFNHSSKTFVVIHGWTVTGMYESWVPKLVAALYKREPDSNVIVVDWLSRAQQHYPVSAGYTKLVGQDVAKFMNWMADEFNYPLGNVHLLGYSLGAHAAGIAGSLTNKKVNRITGLDPAGPNFEYAEAPSRLSPDDADFVDVLHTFTRGSPGRSIGIQKPVGHVDIYPNGGTFQPGCNIGEALRVIAERGLGDVDQLVKCSHERSVHLFIDSLLNEENPSKAYRCNSKEAFEKGLCLSCRKNRCNNMGYEINKVRAKRSSKMYLKTRSQMPYKVFHYQVKIHFSGTESNTYTNQAFEISLYGTVAESENIPFTLPEVSTNKTYSFLLYTEVDIGELLMLKLKWISDSYFSWSNWWSSPGFDIGKIRVKAGETQKKVIFCSREKMSYLQKGKSPVIFVKCHDKSLNRKSG
TG hydrolysis, in vitro LPL assay with apoC-II deficient patient sera [2]: lipidation enhanced the ability of C2thirdhelix to promote TG hydrolysis
TG hydrolysis, in vitro LPL assay with apoC-II deficient patient sera (C2thirdhelix Stearylpos1): lipidation enhanced the ability of C2thirdhelix to promote TG hydrolysis
TG hydrolysis, in vitro LPL assay with apoC-II deficient patient sera (C2thirdhelix Stearylpos2): lipidation enhanced the ability of C2thirdhelix to promote TG hydrolysis
TG hydrolysis, in vitro LPL assay with apoC-II deficient patient sera (C2thirdhelix): lipidation enhanced the ability of C2thirdhelix to promote TG hydrolysis
TG hydrolysis, in vitro LPL assay with apoC-II deficient patient sera (Delta13-31-PV): promoted TG hydrolysis in vitro in a dose-dependent manner
TG hydrolysis, LPL assay using Intralipid as substrate (Delta4): worked more efficiently than the native apoC-II protein at concentrations of between about 1 nM to about 10 µM
TG hydrolysis, in vitro LPL assay, 100 pM to 10 µM peptide (Delta4): promoted TG hydrolysis in a dose-dependent manner
TG hydrolysis, in vitro LPL assay, 100 pM to 10 µM peptide (Delta4b T57F): promoted TG hydrolysis in a dose-dependent manner
TG hydrolysis, in vitro LPL assay, 100 pM to 10 µM peptide (Delta4b-1): promoted TG hydrolysis in a dose-dependent manner
TG hydrolysis, in vitro LPL assay, 100 pM to 10 µM peptide (Delta4b-2): promoted TG hydrolysis in a dose-dependent manner
TG hydrolysis, in vitro LPL assay with apoC-II deficient patient sera (Delta4b-3): incorporation of proline at position 58 and the stearic acid modification at the lysine residue at position 56 enhanced the TG clearance ability of the exemplary apoC-III mimetic peptide Delta4
TG hydrolysis, in vitro LPL assay, 100 pM to 10 µM peptide (Delta4b-3): promoted TG hydrolysis in a dose-dependent manner
TG hydrolysis, in vitro LPL assay with apoC-II deficient patient sera (Delta4b): incorporation of proline at position 58 and the stearic acid modification at the lysine residue at position 56 enhanced the TG clearance ability of the exemplary apoC-III mimetic peptide Delta4
TG hydrolysis, in vitro LPL assay, 100 pM to 10 µM peptide (Delta4b): promoted TG hydrolysis in a dose-dependent manner
TG hydrolysis, LPL assay with apoC-II deficient patient sera (Delta4c trunc10): Delta4c and its truncation variants promoted TG hydrolysis
TG hydrolysis, LPL assay with apoC-II deficient patient sera (Delta4c trunc11): Delta4c and its truncation variants promoted TG hydrolysis
TG hydrolysis, LPL assay with apoC-II deficient patient sera (Delta4c trunc14): Delta4c and its truncation variants promoted TG hydrolysis
TG hydrolysis, LPL assay with apoC-II deficient patient sera (Delta4c trunc3): Delta4c and its truncation variants promoted TG hydrolysis
TG hydrolysis, LPL assay with apoC-II deficient patient sera (Delta4c trunc4): Delta4c and its truncation variants promoted TG hydrolysis
TG hydrolysis, LPL assay with apoC-II deficient patient sera (Delta4c trunc7): Delta4c and its truncation variants promoted TG hydrolysis
TG hydrolysis, LPL assay with apoC-II deficient patient sera (Delta4c): Delta4c and its truncation variants promoted TG hydrolysis
TG hydrolysis, LPL assay using Intralipid as substrate (Delta5): worked more efficiently than the native apoC-II protein at concentrations of between about 1 nM to about 10 µM
TG hydrolysis, LPL assay with apoC-II deficient patient sera (Delta6): all variants of Delta5 with the indicated amino acid substitutions and Delta6 exhibited the ability to promote TG hydrolysis in a dose dependent matter
production of free fatty acid (NEFA), LPL assay with Intralipid as substrate (recombinant ApoC-III): apoC-III inhibited the production of free fatty acid (NEFA)
TG hydrolysis, LPL assay with apoC-II deficient patient sera [3]: all variants of Delta5 with the indicated amino acid substitutions and Delta6 exhibited the ability to promote TG hydrolysis in a dose dependent matter

molar ratio of apoC-II-a to apoC-III that overcomes the in vitro inhibition of LPL [1]: 0.1 molar ratio apoC-II-a : apoC-III
B2: apoC-II-a peptide (peptide)
peptide: DWLKAFYDKVAEKLKEAFPAMSTYTGIFTDQVLSVLKGEE

— patent US20200140522A1 (US Dept. of Health and Human Services, published 2020)
